Numbering of substitutions follows the chain as printed. Numbers in names are those of the source.
B1: BGA190 (antibody, V domains shown)
VH: DVQLVESGGGLVQPGGSRELSCAASGFTFSSFGMHWVRQAPERGLEWVAYISIGSDIIYYADTVKGRFTISRDNPKNTLFLQMTSLRSEDTAVYYCTRRSYRSYWYFDVWGAGTTVTVSS
VL: DIQMTQSPASLSASVGETVTITCRTSENIYSYLAWYQQKQGKSPHLLVYNAKTLAEGVPSRFSGSGSGTQFSLKIISLQPEDFGTYYCQHHFLSPWMFGGGTKLEIK
B2: BGA288 (antibody, V domains shown)
VH: EVLLQQSGPELVKPGASVKIFCKASGYTFTDYNIDWVQQSHGKSLEWIGDIGPNYGGTIYNQKFKGKATLTVAKSSSTAYMELRSLTSEDTAVYYCARRGSIPRAVDYWGQGTSVTVSS
VL: DIKMTQSPSSMYASLGERVTITCKASQDIHNYLSWFQQKPGKSPKTLIYRANRLVDGVPSRFSGSGSGQDYSLTISSLEYEDMGIYYCLQYDEFPYTFGGGTKLEIK
B3: BE-562 (E-muFc-BGA-5623) (bispecific antibody)
heavy: EVQLLESGGGLVQPGGSLRLSCAASGFTVSAEDVGWVRQAPGKGLEWVSAILDKGGSTYYAESVKGRFTISRDNAKNTLYLQMSSLRAEDTAVYYCARIVYHAGGGVTFDTRGQGTQVTVSSEPKSSDKTHTCPPCPAPPAAGPSVFLFPPKPKDTLMISRTPEVTCVVVDVSHEDPEVKFNWYVDGVEVHNAKTKPREEQYNSTYRVVSVLTVLHQDWLNGKEYKCKVSNKALAAPIEKTISKAKGQPREPQVYTLPPSREEMTKNQVSLTCLVKGFYPSDIAVEWESNGQPENNYKTTPPVLDSDGSFFLYSKLTVDKSRWQQGNVFSCSVMHEALHNHYTQKSLSLSPGKGGGGSQVQLVQSGAEVKKPGASVKVSCKASGYIFTSYYLHWVRQAPGQGLEWIGYINPQTGKTSYAQKFQGRVTMTRDTSTSTVYMELSSLRSEDTAVYYCAREYGNYNYPLDYWGQGTLVTVSSASTKGPSVFPLAPSSKSTSGGTAALGCLVKDYFPEPVTVSWNSGALTSGVHTFPAVLQSSGLYSLSSVVTVPSSSLGTQTYICNVNHKPSNTKVDKKVEPKSCD
light: DIQMTQSPSSLSASVGDRVTITCRASENQYGYLAWYQQKPGKVPKLLIYNYKNLVEGVPSRFSGSGSGTDFTLTISSLQPEDVATYYCQHHLGTPYTFGQGTKVEIKRTVAAPSVFIFPPSDEQLKSGTASVVCLLNNFYPREAKVQWKVDNALQSGNSQESVTEQDSKDSTYSLSSTLTLSKADYEKHKVYACEVTHQGLSSPVTKSFNRGEC
B4: BE-718 (A-BGA-5623-BGA-5623) (bispecific antibody, human IgG1, kappa)
heavy: QVQLVQSGAEVKKPGASVKVSCKASGYIFTSYYLHWVRQAPGQGLEWIGYINPQTGKTSYAQKFQGRVTMTRDTSTSTVYMELSSLRSEDTAVYYCAREYGNYNYPLDYWGQGTLVTVSSASTKGPSVFPLAPSSKSTSGGTAALGCLVKDYFPEPVTVSWNSGALTSGVHTFPAVLQSSGLYSLSSVVTVPSSSLGTQTYICNVNHKPSNTKVDKKVEPKSCDKTHTCPPCPAPPAAGPSVFLFPPKPKDTLMISRTPEVTCVVVDVSHEDPEVKFNWYVDGVEVHNAKTKPREEQYNSTYRVVSVLTVLHQDWLNGKEYKCKVSNKALAAPIEKTISKAKGQPREPQVYTLPPSREEMTKNQVSLTCLVKGFYPSDIAVEWESNGQPENNYKTTPPVLDSDGSFFLYSKLTVDKSRWQQGNVFSCSVMHEALHNHYTQKSLSLSPGKGGGGSEVQLLESGGGLVQPGGSLRLSCAASGFTVSAEDVGWVRQAPGKGLEWVSAILDKGGSTYYAESVKGRFTISRDNAKNTLYLQMSSLRAEDTAVYYCARIVYHAGGGVTFDTRGQGTQVTVSSGGGGSEVQLLESGGGLVQPGGSLRLSCAASGFTVSAEDVGWVRQAPGKGLEWVSAILDKGGSTYYAESVKGRFTISRDNAKNTLYLQMSSLRAEDTAVYYCARIVYHAGGGVTFDTRGQGTQVTVSS
light: B3 light
B5: BE-740 (A-IgG1-BGA-5623) (bispecific antibody)
heavy: not shown
light: B3 light
B6: BE-244 (A-(G4S)3-BGA-5623) (bispecific antibody, human IgG1, kappa)
heavy: QVQLVQSGAEVKKPGASVKVSCKASGYIFTSYYLHWVRQAPGQGLEWIGYINPQTGKTSYAQKFQGRVTMTRDTSTSTVYMELSSLRSEDTAVYYCAREYGNYNYPLDYWGQGTLVTVSSASTKGPSVFPLAPSSKSTSGGTAALGCLVKDYFPEPVTVSWNSGALTSGVHTFPAVLQSSGLYSLSSVVTVPSSSLGTQTYICNVNHKPSNTKVDKKVEPKSCDKTHTCPPCPAPPAAGPSVFLFPPKPKDTLMISRTPEVTCVVVDVSHEDPEVKFNWYVDGVEVHNAKTKPREEQYNSTYRVVSVLTVLHQDWLNGKEYKCKVSNKALAAPIEKTISKAKGQPREPQVYTLPPSREEMTKNQVSLTCLVKGFYPSDIAVEWESNGQPENNYKTTPPVLDSDGSFFLYSKLTVDKSRWQQGNVFSCSVMHEALHNHYTQKSLSLSPGKGGGGSGGGGSGGGGSEVQLLESGGGLVQPGGSLRLSCAASGFTVSAEDVGWVRQAPGKGLEWVSAILDKGGSTYYAESVKGRFTISRDNAKNTLYLQMSSLRAEDTAVYYCARIVYHAGGGVTFDTRGQGTQVTVSS
light: B3 light
B7: BE-375 (E-IgG1-BGA-5623) (bispecific antibody)
heavy: not shown
light: B3 light
B8: BE-755 (ZW1+2) (bispecific antibody, human IgG1, L234A L235A)
heavy: QVQLVQSGAEVKKPGASVKVSCKASGYIFTSYYLHWVRQAPGQGLEWIGYINPQTGKTSYAQKFQGRVTMTRDTSTSTVYMELSSLRSEDTAVYYCAREYGNYNYPLDYWGQGTLVTVSSASTKGPSVFPLAPSSKSTSGGTAWLGCEVTDYFPEPVTVSWNSGALTSGVHTFPAVLESSGLYSLSSVVTVPSSSLGTQTYICNVNHKPSNTKVDKKVEPKSCDKTHTCPPCPAPEAAGGPSVFLFPPKPKDTLMISRTPEVTCVVVSVSHEDPEVKFNWYVDGVEVHNAKTKPREEQYNSTYRVVSVLTVLHQDWLNGKEYKCKVSNKALPAPIEKTISKAKGQPREPQVYVLPPSRDELTKNQVSLLCLVKGFYPSDIAVEWESNGQPENNYLTWPPVLDSDGSFFLYSKLTVDKSRWQQGNVFSCSVMHEALHNHYTQKSLSLSPGK
light: B3 light with F116A, Q124R, L135V, T178R
chain: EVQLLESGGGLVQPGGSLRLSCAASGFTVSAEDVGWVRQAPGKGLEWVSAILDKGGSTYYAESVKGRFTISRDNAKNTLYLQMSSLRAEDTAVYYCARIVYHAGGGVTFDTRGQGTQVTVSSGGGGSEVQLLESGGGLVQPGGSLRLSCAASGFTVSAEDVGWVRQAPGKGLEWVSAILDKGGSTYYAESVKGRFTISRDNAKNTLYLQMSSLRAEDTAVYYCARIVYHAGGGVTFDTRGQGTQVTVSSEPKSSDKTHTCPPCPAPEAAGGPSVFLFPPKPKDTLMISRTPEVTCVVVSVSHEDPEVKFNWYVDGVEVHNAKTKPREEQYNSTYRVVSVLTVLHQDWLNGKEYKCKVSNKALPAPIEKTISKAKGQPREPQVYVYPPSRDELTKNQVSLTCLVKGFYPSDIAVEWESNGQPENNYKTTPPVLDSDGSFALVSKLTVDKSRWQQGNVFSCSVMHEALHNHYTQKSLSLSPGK
B9: BE-942 (ZW 1+1) (bispecific antibody, human IgG1, L234A L235A)
heavy: B8 heavy
light: B3 light with F116A, Q124R, L135V, T178R
chain: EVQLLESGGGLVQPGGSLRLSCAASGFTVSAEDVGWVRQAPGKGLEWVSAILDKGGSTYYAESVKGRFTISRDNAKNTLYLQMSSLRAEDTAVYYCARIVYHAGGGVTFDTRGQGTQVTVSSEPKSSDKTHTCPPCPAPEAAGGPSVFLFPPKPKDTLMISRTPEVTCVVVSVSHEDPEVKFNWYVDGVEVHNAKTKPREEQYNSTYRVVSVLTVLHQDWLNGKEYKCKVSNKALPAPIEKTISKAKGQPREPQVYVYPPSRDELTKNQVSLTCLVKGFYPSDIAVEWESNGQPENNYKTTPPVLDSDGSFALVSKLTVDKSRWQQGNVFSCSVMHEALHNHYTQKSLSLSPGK
B10: Format A BGA-9468 (bispecific antibody, human IgG1, kappa)
heavy: QVQLVQSGAEVKKPGASVKVSCKASGYIFTSYYLHWVRQAPGQGLEWIGYINPQTGKTSYAQKFQGRVTMTRDTSTSTVYMELSSLRSEDTAVYYCAREYGNYNYPLDYWGQGTLVTVSSASTKGPSVFPLAPSSKSTSGGTAALGCLVKDYFPEPVTVSWNSGALTSGVHTFPAVLQSSGLYSLSSVVTVPSSSLGTQTYICNVNHKPSNTKVDKKVEPKSCDKTHTCPPCPAPPAAGPSVFLFPPKPKDTLMISRTPEVTCVVVDVSHEDPEVKFNWYVDGVEVHNAKTKPREEQYNSTYRVVSVLTVLHQDWLNGKEYKCKVSNKALAAPIEKTISKAKGQPREPQVYTLPPSREEMTKNQVSLTCLVKGFYPSDIAVEWESNGQPENNYKTTPPVLDSDGSFFLYSKLTVDKSRWQQGNVFSCSVMHEALHNHYTQKSLSLSPGKGGGGSEVQLLESGGGLVQPGGSLRLSCAASGFTVSAEDVGWVRQAPGKGLEWVSAILDSGGSTYYAESVKGRFTISRDNAKNTLYLQMSSLRAEDTAVYYCARVVYHSGGGVTFDLRGQGTQVTVSS
light: B3 light

Tests used:
[1] = target: T1, soluble human CEA, amino acids 1-687 of huCEA with C-terminal 6xHis tag (human, UniProt P06731 35-687); assay: flow cytometry on MKN45 cells, 2 µg/ml antibody, competitor 20 µg/ml recombinant soluble CEA in solution
T1 construct: also called sCEA; soluble huCEA
T1 sequence: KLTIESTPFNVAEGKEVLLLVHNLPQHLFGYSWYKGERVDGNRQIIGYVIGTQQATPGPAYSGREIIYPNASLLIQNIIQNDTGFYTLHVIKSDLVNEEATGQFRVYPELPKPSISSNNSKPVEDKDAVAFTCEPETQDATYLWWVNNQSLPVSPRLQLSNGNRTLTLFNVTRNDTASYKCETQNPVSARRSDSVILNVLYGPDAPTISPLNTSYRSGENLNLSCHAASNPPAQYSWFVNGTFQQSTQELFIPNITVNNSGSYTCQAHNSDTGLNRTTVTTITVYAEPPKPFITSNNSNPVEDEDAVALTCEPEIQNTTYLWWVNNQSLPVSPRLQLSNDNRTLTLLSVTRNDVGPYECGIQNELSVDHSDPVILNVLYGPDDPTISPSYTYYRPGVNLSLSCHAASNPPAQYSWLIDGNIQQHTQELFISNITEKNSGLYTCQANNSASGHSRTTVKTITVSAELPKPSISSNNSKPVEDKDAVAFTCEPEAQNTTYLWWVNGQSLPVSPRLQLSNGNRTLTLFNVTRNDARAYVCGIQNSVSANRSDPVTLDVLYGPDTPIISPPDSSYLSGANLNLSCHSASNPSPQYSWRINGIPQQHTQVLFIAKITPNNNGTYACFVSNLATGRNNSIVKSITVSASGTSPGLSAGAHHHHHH
Experimental: The presence of soluble CEA on the specific binding of various CEA antibodies to CEA expressing cells was evaluated via flow cytometry. […] Cell fluorescence was quantified using a flow cytometer (Guava easyCyte™ 8HT, Merck-Millipore, USA).

[2] = target: full-length human CD137 on cells (Hut78/huCD137, HEK293 transfectants, JK-NFKB-CD137) (human, UniProt Q07011 24-255); assay: cell-based or functional assay
full-length human CD137 on cells (Hut78/huCD137, HEK293 transfectants, JK-NFKB-CD137), sequence (Q07011 24-255 limits assumed): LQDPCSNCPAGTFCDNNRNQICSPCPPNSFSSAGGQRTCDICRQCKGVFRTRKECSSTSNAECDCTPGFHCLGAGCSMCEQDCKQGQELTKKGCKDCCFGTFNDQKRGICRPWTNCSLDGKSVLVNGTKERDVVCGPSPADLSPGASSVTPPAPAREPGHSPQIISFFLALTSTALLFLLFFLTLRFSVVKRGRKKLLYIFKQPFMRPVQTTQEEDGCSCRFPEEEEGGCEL

human CD137 ECD-mIgG2a = target: T2, human CD137 ECD-mIgG2a (human); assay: SPR, A-CEAxCD137 format
T2 construct: ECD 24-183 of huCD137 fused to mouse IgG2a Fc; also called huCD137-mIgG2a; huCD137
T2 sequence (chain, as listed by the source limits assumed): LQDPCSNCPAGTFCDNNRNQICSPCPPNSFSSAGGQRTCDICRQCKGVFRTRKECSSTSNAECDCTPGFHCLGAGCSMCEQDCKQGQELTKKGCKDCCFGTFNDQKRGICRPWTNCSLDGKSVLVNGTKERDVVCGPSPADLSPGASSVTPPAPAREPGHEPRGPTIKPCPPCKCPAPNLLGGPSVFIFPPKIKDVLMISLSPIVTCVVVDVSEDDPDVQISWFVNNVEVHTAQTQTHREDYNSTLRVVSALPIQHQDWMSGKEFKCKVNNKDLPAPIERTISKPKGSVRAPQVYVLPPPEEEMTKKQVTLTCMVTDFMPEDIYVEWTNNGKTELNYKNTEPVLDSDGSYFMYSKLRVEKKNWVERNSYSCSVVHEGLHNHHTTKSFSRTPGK
Experimental: Characterization of anti-huCD137 VH domain antibodies were made by SPR assays using BIAcore™ T-200 (GE Life Sciences). Briefly, anti-human IgG (Fc) antibody was immobilized on an activated CM5 biosensor chip (Cat.: BR100839, GE Life Sciences). Anti-huCD137 domain antibodies were flowed over the chip surface and captured by anti-human IgG (Fc) antibody. […] The equilibrium dissociation constant (KD) was calculated as the ratio koff/kₒₙ.
Affinity comparison on CD137 affinity matured variants was made by SPR assays using BIAcore™ T-200 (GE Life Sciences) and flow cytometry as described.

| Binder | Functional assay EC50 (PBMC cytokine release, in vitro CD137 activation) [2] [mg/L] | further results |
| --- | --- | --- |
| B1 |  | binding result [1]: binds |
| B2 |  | binding result [1]: binds |
| B3 | 4.69 |  |
| B4 | 0.01 |  |
| B5 | 0.17 |  |
| B6 | 0.18 |  |
| B7 | 1.76 |  |
| B8 | 1.16 |  |
| B9 | 25.1 |  |
| B10 |  | Kd (human CD137 ECD-mIgG2a): 0.873 µM |

— patent publication US20240190989A1 (BEIGENE SWITZERLAND, published 2024)
